# Data as given in PMC9699676, “Host nucleases generate prespacers for primed adaptation in the E. coli type I-E CRISPR-Cas system”.
# T1: Cas1;Cas2 (Escherichia coli;Escherichia coli, UniProt Q46896;P45956 1-305;1-94, |)
# T1 sequence 1: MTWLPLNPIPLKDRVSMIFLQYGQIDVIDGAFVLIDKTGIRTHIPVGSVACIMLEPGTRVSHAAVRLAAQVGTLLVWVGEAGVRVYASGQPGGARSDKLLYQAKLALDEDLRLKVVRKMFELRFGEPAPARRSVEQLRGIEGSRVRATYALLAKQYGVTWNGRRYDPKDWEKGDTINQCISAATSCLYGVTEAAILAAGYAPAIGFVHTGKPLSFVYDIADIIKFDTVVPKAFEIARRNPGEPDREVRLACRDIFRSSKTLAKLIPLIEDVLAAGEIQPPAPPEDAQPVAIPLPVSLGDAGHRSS
# T1 sequence 2: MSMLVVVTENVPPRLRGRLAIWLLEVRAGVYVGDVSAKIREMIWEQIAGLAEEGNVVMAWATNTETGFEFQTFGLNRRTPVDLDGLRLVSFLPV
# B1: substrate 3 (dsDNA)
# DNA 1: ATTTACTACTCGTTCTGGTGTTTCTCGT
# DNA 2: ACGAGAAACACCAGAACGAGTAGTAAATTGGGC
# B2: substrate 2 (dsDNA)
# DNA 1: ATTTACTACTCGTTCTGGTGTTTCTCGT
# DNA 2: AAACACCAGAACGAGTAGTAAATTGGGC
# B3: double fork with 15-bp blunt end (Fig. 4B, S7) (dsDNA)
# DNA 1: CCGCCTTAACCGGTCAACCTAAACATTTACCGCGCGATCGGGTGTTTGGTGA
# DNA 2: CACAAAAACACCCGATCGCGCGGTAAATTGGGCTTGG
# DNA 3: GACCGGTTAAGGCGG
# B4: substrate 10 (33/37) (dsDNA)
# DNA 1: GCCCAATTTACTACTCGTTCTGGTGTTTCTCGT
# DNA 2: ACGAGAAACACCAGAACGAGTAGTAAATTGGGCTTGA
# B5: substrate 9 (33/35) (dsDNA)
# DNA 1: B4 DNA 1
# DNA 2: ACGAGAAACACCAGAACGAGTAGTAAATTGGGCTT
# B6: substrate 5 (dsDNA)
# DNA 1: ATTTACTACTCGTTCTGGTGTTTCTCGT
# DNA 2: B4 DNA 2
# B7: substrate 4 (dsDNA)
# DNA 1: ATTTACTACTCGTTCTGGTGTTTCTCGT
# DNA 2: B5 DNA 2
# Key:
# Cas1;Cas2 [1] = molecular target: T1, Cas1;Cas2; assay: EMSA; preannealed; 40 mM Tris-HCl pH 7.5, 50 mM NaCl, 10 mM MgCl2, 0.5 mM TCEP, 0.1 mg/ml BSA; EMSA (Fig. S9) 25 nM DNA, 2 uM Cas1-Cas2, 37 C 30 min; footprinting 0.2 uM DNA, 1.6; conditions: protein: recombinant;recombinant; tags: ;; chain copies: 4;2; label: 5'-32P on strand 1; 28-bp duplex, single 3' overhang 5 nt
# Cas1;Cas2 [2] = molecular target: T1, Cas1;Cas2; assay: EMSA; preannealed; reference for substrate 10; 40 mM Tris-HCl pH 7.5, 50 mM NaCl, 10 mM MgCl2, 0.5 mM TCEP, 0.1 mg/ml BSA; EMSA (Fig. S9) 25 nM DNA, 2 uM Cas1-Cas2, 37 C 30 min; footprinting 0.2 uM DNA, 1.6; conditions: protein: recombinant;recombinant; tags: ;; chain copies: 4;2; label: 5'-32P on strand 1; 23-bp duplex, 3' overhang 5 nt on each end
# Cas1;Cas2 [3] = molecular target: T1, Cas1;Cas2; assay: exonuclease footprinting; RecJ with RecBC or RecBCD, 1 mM ATP; 33-nt product; 40 mM Tris-HCl pH 7.5, 50 mM NaCl, 10 mM MgCl2, 0.5 mM TCEP, 0.1 mg/ml BSA; EMSA (Fig. S9) 25 nM DNA, 2 uM Cas1-Cas2, 37 C 30 min; footprinting 0.2 uM DNA, 1.6; conditions: protein: recombinant;recombinant; tags: ;; chain copies: 4;2; label: 3'-FAM on strand 1; fork; 23-bp duplex; extended 5' arm annealed to strand 3 as 15-bp blunt duplex
# Cas1;Cas2 [4] = molecular target: T1, Cas1;Cas2; assay: EMSA; strands added separately; 40 mM Tris-HCl pH 7.5, 50 mM NaCl, 10 mM MgCl2, 0.5 mM TCEP, 0.1 mg/ml BSA; EMSA (Fig. S9) 25 nM DNA, 2 uM Cas1-Cas2, 37 C 30 min; footprinting 0.2 uM DNA, 1.6; conditions: protein: recombinant;recombinant, tags: ;, chain copies: 4;2, label: 5'-32P on strand 1, 33-bp duplex
# Cas1;Cas2 [5] = molecular target: T1, Cas1;Cas2; assay: EMSA; preannealed; longer overhang stimulated binding; 40 mM Tris-HCl pH 7.5, 50 mM NaCl, 10 mM MgCl2, 0.5 mM TCEP, 0.1 mg/ml BSA; EMSA (Fig. S9) 25 nM DNA, 2 uM Cas1-Cas2, 37 C 30 min; footprinting 0.2 uM DNA, 1.6; conditions: protein: recombinant;recombinant, tags: ;, chain copies: 4;2, label: 5'-32P on strand 1, 28-bp duplex
binder,measurement,setting,value
B1,binding result,Cas1;Cas2 [1],binds
B2,binding result,Cas1;Cas2 [2],binds
B3,binding result,Cas1;Cas2 [3],binds
B4,binding signal,Cas1;Cas2 [4]; single 3' overhang 4 nt with PAM,18 fold more than preannealed
B5,binding signal,Cas1;Cas2 [4]; single 3' overhang 2 nt with PAM,5 fold more than preannealed
B6,binding result,Cas1;Cas2 [5]; single 3' overhang 9 nt with PAM,binds
B7,binding result,Cas1;Cas2 [5]; single 3' overhang 7 nt with PAM,binds
